{"source": "patent US20240034807A1", "binders": {"B1": {"name": "Clone #1 VH domain (protein)", "VH": "EVQLVESGGGVVQPGRSLRLSCAASGFTFSSYAMHWVRQAPGKALEWIGSISYSGSTYYNPSLKSRVTVSRDNAKNTLYLQMDSLRAEDTAMYYCAKYYCSGGTCYYFDYWGQGTLVTVSS"}, "B2": {"name": "Clone #10 VH domain (protein)", "VH": "EVQLVESGGGVVQPGRSLRLSCAASGFTFSSYAMHWVRQAPGKGLEWIGSIRHDGNTYYNPSLKSRVTVSRDNAKNTLYLQMDSLRAEDTAMYYCAKYGCSSISCSFDYWGQGTLVTVSS"}, "B3": {"name": "Clone #11 VH domain (protein)", "VH": "EVQLVESGGGVVQPGRSLRLSCAASGFTFSSYAMHWVRQAPGKGLEWVSGITRSGGATFYAGSVKGRFTISRDDSTNTLYLQMNSLRAEDTAVYYCSRDPRRVDYWGQGTLVTVSS"}, "B4": {"name": "Clone #12 VH domain (protein)", "VH": "EVQLVETGGDLAQPGESLRLSCVASGFTFSSSWMTWIRQAPGKGLEWVSSLSGRSEKTFYADSVKGRFTVSRDNAKNTLYLQMDSLRPEDTATYYCASGWALVWGQGTLVTVSS"}, "B5": {"name": "Clone #2 VH domain (protein)", "VH": "EVQLVESGGGVVQPGRSLRLSCAASGFTFSSYAMHWVRQAPGKGLEWIGYIYTSGSTNYNPSLKSRVTISRDDSTNTLYLQMNSLRAEDTATYYCARTPRGRDSSGYYQSPHAFDIWGQGTLVTVSS"}, "B6": {"name": "Clone #3 VH domain (protein)", "VH": "KVQLQQWGAGLLKPSETLSLTCAVYGGSFSGYYWSWIRQPPGKGLEWIGEINHSGSTNYNPSLKSRVTISVDTSKNQFSLKLSSVTAADTALYYCARTYRPHSYYYYGMDVWGQGTTVTVSS"}, "B7": {"name": "Clone #4 VH domain (protein)", "VH": "EVQLVESGGGVVQPGRSLRLSCAASGFTFSSYAMHWVRQAPGKGLEWVSSISGNSLYKYYADSVKGRFTISRDDSTNTLYLQMNSLRAEDTATYYCTRHWAVGNWGQGTLVTVSS"}, "B8": {"name": "Clone #5 VH domain (protein)", "VH": "EVQLVESGGGVVQPGRSLRLSCAASGLTFSSYAMHWVRQAPGKGLEWIGTIRYDGNTYYNPSLKSLVTISRDDSTNTLYLQMNSLRAEDTATYYCARRRYYDSSGYRGAAFDIWGQGTLVTVSS"}, "B9": {"name": "Clone #6 VH domain (protein)", "VH": "QVQLQQWGAGLLKPSETLSLTCAVYGGSFSGYYWSWIRQPPGKGLEWIGEINHSGSTNYNPSLKSRVTISVDTSKNQFSLKLSSVTAADTATYYCARSYRTVTYYKAYFQHWGQGTLVTVSS"}, "B10": {"name": "Clone #7 VH domain (protein)", "VH": "EVQLVESGGGVVQPGRSLRLSCAASGFTFSSYAMHWVRQAPGKGLEWIGTIRYDGNTYYNPSLKSLVTISRDDSTNTLYLQMNSLRAEDTALYYCAKYGCSSTSCSFDYWGQGTLVTVSS"}, "B11": {"name": "Clone #8 VH domain (protein)", "VH": "EVQLVESGGGVVQPGRSLRLSCAASGFTFSSYAMHWVRQAPGKGLEWIGSIRHDGNTYYNPSLKSRVSVSRDNAKNTLYLQMDSLRAEDTAMYYCAKYGCSSISCSFDYWGQGTLVTVSS"}, "B12": {"name": "Clone #9 VH domain (protein)", "VH": "EVQLVESGGGVVQPGRSLRLSCAASGFTFSSYAMHWVRQAPGKGLEWVSGISYNGDHTYYADSVKGRSTVSRDNAKNTLYLQMDSLRPEDTAMYYCTRNYFFDYWGQGTLVTVSS"}}, "data": [{"target": "human mesothelin polypeptide (human) (UniProt Q13421)", "test": "ELISA and SPR (Blitz) on a human mesothelin polypeptide", "units": {"EC50": "nM"}, "values": [{"binder": "B1", "EC50": 1000}, {"binder": "B2", "EC50": 107}, {"binder": "B3", "EC50": 98}, {"binder": "B4", "EC50": 1.3}, {"binder": "B5", "EC50": 1.6}, {"binder": "B6", "EC50": 38}, {"binder": "B7", "EC50": 1.7}, {"binder": "B8", "EC50": 298}, {"binder": "B9", "EC50": 1000}, {"binder": "B10", "EC50": 16.4}, {"binder": "B11", "EC50": 6.5}, {"binder": "B12", "EC50": 944}]}]}
